Experimental data reported in patent US20120034228A1 (MICROMET, published 2012).

What was measured:
[1] = target: T1, human CD3 (on the human CD3 positive T cell leukemia cell line HPB-ALL) (human, UniProt P07766 23-207); assay: FACS on HPB-ALL
T1 construct: whole, on cells; native CD3 complex on T cells; also called human CD3 epsilon

[2] = target: human FAPalpha (on CHO cells) (human, UniProt Q12884 1-760); assay: FACS on CHO cells
[3] = target: macaque FAPalpha (on CHO cells) (macaque (Cynomolgus)); assay: FACS on CHO cells
[4] = target: T2, 1-27 CD3-Fc (human); assay: ELISA on captured 1-27 CD3-Fc
T2 construct: aa 1-27 of mature human CD3 epsilon, hinge and Fc gamma of human IgG1, His6; also called human CD3 epsilon (aa 1-27)-Fc fusion protein; 27 aa huCD3E

[5] = target: T3, 1-27 CD3-EpCAM comprising the human 27 mer (human; cynomolgus); assay: FACS on transfected 293-HEK cells
T3 construct: on transfected cells
T3 chain: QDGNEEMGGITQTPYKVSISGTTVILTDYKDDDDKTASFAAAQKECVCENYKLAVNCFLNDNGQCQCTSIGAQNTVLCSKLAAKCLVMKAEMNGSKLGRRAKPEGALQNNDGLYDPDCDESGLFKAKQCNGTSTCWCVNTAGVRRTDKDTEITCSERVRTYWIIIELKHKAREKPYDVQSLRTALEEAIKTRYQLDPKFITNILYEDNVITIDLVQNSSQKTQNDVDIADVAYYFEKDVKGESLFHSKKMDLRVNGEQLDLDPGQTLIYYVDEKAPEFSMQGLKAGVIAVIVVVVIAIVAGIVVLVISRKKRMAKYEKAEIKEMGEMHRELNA

[6] = target: T4, 1-27 CD3-EpCAM comprising the marmoset 27 mer (Callithrix jacchus; cynomolgus); assay: FACS on transfected 293-HEK cells
T4 construct: on transfected cells
T4 chain: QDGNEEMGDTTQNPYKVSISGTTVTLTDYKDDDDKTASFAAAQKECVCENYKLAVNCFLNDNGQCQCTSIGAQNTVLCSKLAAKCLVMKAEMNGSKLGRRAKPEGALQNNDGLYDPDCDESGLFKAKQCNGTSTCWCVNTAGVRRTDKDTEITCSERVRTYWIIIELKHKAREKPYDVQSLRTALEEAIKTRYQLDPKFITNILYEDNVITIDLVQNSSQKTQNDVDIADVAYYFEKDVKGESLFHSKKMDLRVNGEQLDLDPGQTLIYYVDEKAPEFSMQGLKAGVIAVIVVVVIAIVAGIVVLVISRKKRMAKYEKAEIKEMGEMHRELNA

[7] = target: T5, 1-27 CD3-EpCAM comprising the squirrel monkey 27 mer (Saimiri sciureus; cynomolgus); assay: FACS on transfected 293-HEK cells
T5 construct: on transfected cells
T5 chain: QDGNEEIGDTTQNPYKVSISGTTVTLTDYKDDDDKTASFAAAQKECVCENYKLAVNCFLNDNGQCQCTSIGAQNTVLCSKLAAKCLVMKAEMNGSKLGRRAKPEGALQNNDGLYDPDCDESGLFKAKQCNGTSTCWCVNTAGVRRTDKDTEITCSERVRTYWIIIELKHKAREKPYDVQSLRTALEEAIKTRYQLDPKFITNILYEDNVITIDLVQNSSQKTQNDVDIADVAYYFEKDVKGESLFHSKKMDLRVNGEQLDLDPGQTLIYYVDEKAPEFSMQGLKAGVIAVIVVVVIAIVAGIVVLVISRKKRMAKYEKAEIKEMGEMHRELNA

Chain of macaque FAPalpha (on CHO cells) (macaque (Cynomolgus)) (chain, as listed by the source): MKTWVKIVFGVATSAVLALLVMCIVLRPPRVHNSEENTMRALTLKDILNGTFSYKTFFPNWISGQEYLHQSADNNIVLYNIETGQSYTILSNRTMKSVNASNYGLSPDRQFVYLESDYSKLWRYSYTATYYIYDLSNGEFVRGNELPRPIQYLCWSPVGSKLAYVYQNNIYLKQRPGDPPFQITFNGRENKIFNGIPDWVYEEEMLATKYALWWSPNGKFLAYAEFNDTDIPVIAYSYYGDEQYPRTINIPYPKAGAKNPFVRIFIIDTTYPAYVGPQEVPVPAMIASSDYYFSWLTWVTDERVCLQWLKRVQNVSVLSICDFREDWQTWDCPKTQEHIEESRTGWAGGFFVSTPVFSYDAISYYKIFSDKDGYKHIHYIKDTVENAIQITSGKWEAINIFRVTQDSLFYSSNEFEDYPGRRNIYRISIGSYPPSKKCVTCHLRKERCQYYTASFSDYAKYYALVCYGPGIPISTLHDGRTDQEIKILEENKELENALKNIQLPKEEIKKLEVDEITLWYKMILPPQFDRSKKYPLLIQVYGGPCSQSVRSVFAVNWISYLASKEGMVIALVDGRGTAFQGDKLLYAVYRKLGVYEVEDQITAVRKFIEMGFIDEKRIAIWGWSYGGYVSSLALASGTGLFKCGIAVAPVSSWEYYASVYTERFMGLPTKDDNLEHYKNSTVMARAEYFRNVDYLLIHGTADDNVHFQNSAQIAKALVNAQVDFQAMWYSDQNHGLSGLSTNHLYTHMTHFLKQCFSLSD
T1 sequence (P07766 23-207): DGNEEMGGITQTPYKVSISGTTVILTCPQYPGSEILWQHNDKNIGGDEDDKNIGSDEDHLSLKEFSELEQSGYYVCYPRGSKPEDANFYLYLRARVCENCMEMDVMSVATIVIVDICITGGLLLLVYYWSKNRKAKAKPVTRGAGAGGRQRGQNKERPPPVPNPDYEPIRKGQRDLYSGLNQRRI

B1: MCSP-G4 HLP x E2M HLP (bispecific antibody)
chain: QVQLVQSGAEVKRPGASMKVSCKASGYTFTNYYIHWVRQAPGQGLEWMGWINPNSGATNYAQKFQGRVTMTRDTSTSTVYMELSSLRSEDTAVYYCAKSWVSWFASWGQGTLVTVSSGGGGSGGGGSGGGGSELVMTQSPDSLAVSLGERATINCKSSQSVLNSSNNRNYLAWYQQKPGQPPKLLIYWASTRESGVPDRFSGSGSGTDFTLTISGLQAEDVAVYYCQQHYSTPFTFGPGTKVDIKSGGGGSEVQLLESGGGLVQPGGSLKLSCAASGFTFNGYAMNWVRQAPGKGLEWVARIRSKYNNYATYYADSVKERFTISRDDSKNTAYLQMNNLKTEDTAVYYCVRHRNFGNSYLSWFAYWGQGTLVTVSSGGGGSGGGGSGGGGSELVVTQEPSLTVSPGGTVTLTCRSSTGAVTSGYYPNWVQQKPGQAPRGLIGATDMRPSGTPARFSGSLLGGKAALTLSGVQPEDEAEYYCALWYSNRWVFGGGTKLTVL
notes: C-terminal His6 tag added
B1: binds [1].

B2: 86D2HL (scFv)
scFv: EVQLLESGGGLVQPGGSLKLSCAASGFDFSTYWMSWVRQAPGKGLEWIGEINPDSSTINYTPSLKDKFIISRDNAKNTLYLQMNKVRSEDTALYYCAGGYYRYPYYYTMDYWGQGTTVTVSSGGGGSGGGGSGGGGSELVMTQSPASLSASVGETVTITCRASGNIHNYLAWYQQKQGKSPQLLVYNAKTLADGVPSRFSGSGSGTQYSLKINSLQPEDFGSYYCQHFWSTPYTFGGGTKLEIK
notes: periplasmic preparation
B2: binds [2]; binds [3].

B3: 86F2HL (scFv)
scFv: EVQLLESGGGLVQPGGSLKLSCAASGFDFSTYWMSWVRQAPGKGLEWIGEINPDSSTVNYTPSLKDKFIISRDNAKNTLYLQMTKVRSEDTALYYCAGGYYRYPYYYTMDYWGQGTTVTVSSGGGGSGGGGSGGGGSELQMTQSPASLSASVGETVTITCRASGNIHNYLAWYQQKQGKSPQLLVYNAKTLADGVPSRFSGSGSGTQYSLKINSLQPEDFGSYYCQHFWSTPYTFGGGTKLEIK
notes: periplasmic preparation
B3: binds [2]; binds [3].

B4: 86D6HL (scFv)
scFv: EVQLLESGGGLVQPGGSLKLSCAASGFDFSTYWMSWVRQAPGKGLEWIGEINPDSSTINYTPSLKDKFIISRDNAKNTLYLQMTKVRPEDTALYYCAGGYYRYPYYYTMDYWGQGTTVTVSSGGGGSGGGGSGGGGSELVMTQSPASLSASVGETVTITCRASGSIHNYLAWYQQKQGKSPQLLVYNAKTLADGVPSRFSGSGSGTQYSLKINSLQPEDFGSYYCQHFWSTPYTFGGGTKLEIK
notes: periplasmic preparation
B4: binds [2]; binds [3].

B5: 86F12HL (scFv)
scFv: EVQLLESGGGLVQPGGSLNLSCAASGFDFSTYWMSWVRQAPGKGLEWIGEINPDSSTINYTPSLKDKFIISRDNAKNTLYLQMNKVRSDDTALYYCAGGYYRYPYYYTMDYWGQGTTVTVSSGGGGSGGGGSGGGGSELQMTQSPASLSASVGETVTITCRASGNIHNYLAWYQQKQGKSPQLLVYNAKTLADGVPSRFSGSGSGTQYSLKINSLQPEDFGSYYCQHFWSTPYTFGGGTKLEIK
notes: periplasmic preparation
B5: binds [2]; binds [3].

B6: 86C12HL (scFv)
scFv: EVQLLESGGGLVQPGGSLKLSCAASGFDFSRSWMSWVRQAPGKGLEWIGEINPDSSTINYTPSLKDKFIISRDNAKNTLYLQMSKVRSEDTALYYCAGGYYRYPYYYTMDYWGQGTTVTVSSGGGGSGGGGSGGGGSELQMTQSPASLSASVGETVTITCRASGNIHNYLAWYQQKQGKSPQLLVYNAKTLADGVPSRFSGSGSGTQYSLKINSLQPEDFGSYYCQHFWSTPYTFGGGTKLEIK
notes: periplasmic preparation
B6: binds [2]; binds [3].

B7: 87G9HL (scFv)
scFv: EVQLLESGGGLVQPGGSLKLSCAASGFDFSRYWMSWVRQAPGKGLEWIGEINPDSSTINYTPSLKDKFIISRDNAKNTLYLQMSKVRSEDTALYYCAGGYYRYPYYYTMDYWGQGTTVTVSSGGGGSGGGGSGGGGSELVMTQSPASLSASVGETVTITCRASGNIHNYLAWYQQKQGKSPQLLVYNAKTLADGVPSRFSGSGSGTQYSLKINSLQPEDFGSYYCQHFWSTPYTFGGGTKLEIK
notes: periplasmic preparation
B7: binds [2]; binds [3].

B8: 86E5HL (scFv)
scFv: EVQLLESGGGLVQPGGSLKLSCAASGFDFSRSWMSWVRQAPGKGLEWIGEINPDSSTINYTPSLKDKFIISRDNAKNTLYLQMSKVRSEDTALYYCAGGYYRYPYYYTMDYWGQGTTVTVSSGGGGSGGGGSGGGGSELQMTQSPASLSASVGETVTITCRASENIYSYLAWYQQKQGKSPQLLVYNAKTLAEGVPSRFSGSGSRTQYSLKINSLQPEDFGSYYCQHFWSTPYTFGGGTKLEIK
notes: periplasmic preparation
B8: binds [2]; binds [3].

B9: 86F10HL (scFv)
scFv: EVQLLESGGGLVQPGGSLKLSCAASGFDFSTYWMSWVRQAPGKGLEWIGEINPDSSTINYTPSLKDKFIISRDNAKNTLYLQMNKVRSDDTALYYCAGGYYRYPYYYTMDYWGQGTTVTVSSGGGGSGGGGSGGGGSELVMTQSPSSLSASVGETVTITCRASGNIHNYLAWYQQKQGKSPQLLVYNAKTLADGVPSRFSGSGSGTQYSLKINSLQPEDFGSYYCQHFWSTPYTFGGGTKLEIK
notes: periplasmic preparation
B9: binds [2]; binds [3].

B10: A2J HLP (scFv)
scFv: EVQLLESGGGLVQPGGSLKLSCAASGFTFNVYAMNWVRQAPGKGLEWVARIRSKYNNYATYYADSVKKRFTISRDDSKNTAYLQMNNLKTEDTAVYYCVRHGNFGNSYLSWWAYWGQGTLVTVSSGGGGSGGGGSGGGGSELVVTQEPSLTVSPGGTVTLTCRSSTGAVTSGYYPNWVQQKPGQAPRGLIGATDMRPSGTPARFSGSLLGGKAALTLSGVQPEDEAEYYCALWYSNRWVFGGGTKLTVL
notes: crude periplasmic preparation, Flag and His6 tags
B10: binds [4].

B11: E2M HLP (scFv)
scFv: EVQLLESGGGLVQPGGSLKLSCAASGFTFNGYAMNWVRQAPGKGLEWVARIRSKYNNYATYYADSVKERFTISRDDSKNTAYLQMNNLKTEDTAVYYCVRHRNFGNSYLSWFAYWGQGTLVTVSSGGGGSGGGGSGGGGSELVVTQEPSLTVSPGGTVTLTCRSSTGAVTSGYYPNWVQQKPGQAPRGLIGATDMRPSGTPARFSGSLLGGKAALTLSGVQPEDEAEYYCALWYSNRWVFGGGTKLTVL
notes: as for B10
B11: binds [4]; binds [5]; binds [6]. B11: binds [7].
